B1: Monoclonal antibody 1C6.E12.G8 (antibody, mouse IgG1, V domains shown)
VH: SGARELVKPGASVKLSCKTSGFTFNSSYITWLKQKPGQSLEWIAWIYAGNGGTTYNQKFTGKAQLTVDTSSSTAYMQFSSLTTEDSAIYYCASETYTNYWYFDVWGSGTTVTVSS
VL: QSPASLSASVGETVTITCRASGNIHNYLAWYQQKQGKSPQLLVYNAKTLADGVPSRFSGSGSGTQYSLKINSLQPEDFGSYYCQHFWSTPYTFGGGTKLEIK
notes: Murine IgG1 kappa from hybridoma; also called ATCC PTA-123091
B2: Monoclonal antibody 1D2.D8.G10 (antibody, mouse IgG1, V domains shown)
VH: QSGTVLARPGASVKMSCKASGYSFTSNWMHWIKQRPGQGLEWIGAIYPGNSDTSYNQKFKGKAKLTAVTSASTAYMELSSLTNEDSAVYHCTRGDGSSFWYFDVWGAGTTVTVSS
VL: QSPASLVVSLGQRATISCRASKSVSTSGYSYMYWYQQKSGQPPKLLIYLASNLESGVPARFSGGGSGTDFTLNIHPVEEEDAATYYCQQSRELPPTFGGGTKLEIK
notes: Murine IgG1 kappa from hybridoma; also called 1D2.D8.G0; ATCC PTA-123098
B3: Monoclonal antibody 5C12.H8 (antibody, mouse IgG2b, V domains shown)
VH: GPGLVKPSQSLSLTCSVTGYSITSGYYWIWIRQFPGNKLEWMGYISYDGSNNYNPSLKNRISITRDTSKNQFFLKLNSVTTEDTATYYCARGNYYAMDYWGQGTSVTVSS
VL: not shown
notes: Murine IgG2b kappa from hybridoma; also called ATCC PTA-123095

What follows are binders tested against T1, recombinant purified FRα (ECL assay calibrator) (human, UniProt P15328 25-234) (assay: ECL sandwich on FRα, signal to background; capture 1C6.E12.G8; binder = detection Ab).
T1 construct: Calibrator of the ECL sandwich assays; also called FRα calibrator; FRα standard
T1 sequence (P15328 25-234 limits assumed): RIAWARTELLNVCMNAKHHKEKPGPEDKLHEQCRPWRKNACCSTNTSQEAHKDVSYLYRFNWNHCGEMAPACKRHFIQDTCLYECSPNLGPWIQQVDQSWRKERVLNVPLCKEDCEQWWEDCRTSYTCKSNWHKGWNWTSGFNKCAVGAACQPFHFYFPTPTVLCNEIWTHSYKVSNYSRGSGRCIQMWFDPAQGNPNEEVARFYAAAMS

Row | Binder | Average of S/B
1 | B1 | 1
2 | B2 | 1
3 | B3 | 1

These binders were tested against T1, recombinant purified FRα (ECL assay …) (assay: ECL sandwich, FRα calibrator; capture 19D4.B7; binder = detection Ab).

Row | Binder | Specific signal at 500 pg/mL
4 | B1 | 37500
5 | B2 | 21800
6 | B3 | 18400

Each binder was assayed against T1, recombinant purified FRα (ECL assay …) (assay: ECL sandwich on FRα, signal to background; capture 24H8.F3; binder = detection Ab).

Row | Binder | Average of S/B
7 | B1 | 1
8 | B2 | 1
9 | B3 | 1

The binders below were run against T1, recombinant purified FRα (ECL assay …) (assay: ECL sandwich on FRα, signal to background; capture 1D2.G8.G10; binder = detection Ab).

Row | Binder | Average of S/B
10 | B1 | 1
11 | B2 | 1
12 | B3 | 1

What follows are binders tested against T2, recombinant human folate receptor alpha (rhFRα) (human, UniProt P15328 25-234) (assay: BIAcore (SPR), format not described).
T2 construct: CHO: Ig kappa leader, C-terminal 6xHis replacing the GPI attachment site; also called FOLR1; FOLR-1
T2 sequence (P15328 25-234 limits assumed): as above

Row | Binder | Kd
13 | B1 | 9.76 nM
14 | B2 | 6.88 nM
15 | B3 | 10.8 nM

The binders below were run against T1, recombinant purified FRα (ECL assay …) (assay: ECL sandwich, FRα calibrator; capture 24H8.F3; binder = detection Ab).

Row | Binder | Specific signal at 500 pg/mL
16 | B1 | 75
17 | B2 | 67
18 | B3 | 60

Each binder was assayed against T1, recombinant purified FRα (ECL assay …) (assay: ECL sandwich on FRα, signal to background; capture 30G6.G6.G4.E9; binder = detection Ab).

Row | Binder | Average of S/B
19 | B1 | 144
20 | B2 | 75
21 | B3 | 61

What follows are binders tested against T1, recombinant purified FRα (ECL assay …) (assay: ECL sandwich on FRα, signal to background; capture 6A2.G7; binder = detection Ab).

Row | Binder | Average of S/B
22 | B1 | 19
23 | B2 | 26
24 | B3 | 9

What follows are binders tested against T1, recombinant purified FRα (ECL assay …) (assay: ECL sandwich on FRα, signal to background; capture 26A9.C4; binder = detection Ab).

Row | Binder | Average of S/B
25 | B1 | 1
26 | B2 | 1
27 | B3 | 1

The binders below were run against T1, recombinant purified FRα (ECL assay …) (assay: ECL sandwich on FRα, signal to background; capture 5C12.H8; binder = detection Ab).

Row | Binder | Average of S/B
28 | B1 | 1
29 | B2 | 1
30 | B3 | 1

These binders were tested against T1, recombinant purified FRα (ECL assay …) (assay: ECL sandwich, FRα calibrator; capture 26A9.C4; binder = detection Ab).

Row | Binder | Specific signal at 500 pg/mL
31 | B1 | 73
32 | B2 | 86
33 | B3 | 78

The binders below were run against T1, recombinant purified FRα (ECL assay …) (assay: ECL sandwich, FRα calibrator; capture 6A2.G7; binder = detection Ab).

Row | Binder | Specific signal at 500 pg/mL
34 | B1 | 967
35 | B2 | 1690
36 | B3 | 596

These binders were tested against T1, recombinant purified FRα (ECL assay …) (assay: ECL sandwich, FRα calibrator; capture 5C12.H8; binder = detection Ab).

Row | Binder | Specific signal at 500 pg/mL
37 | B1 | 70
38 | B2 | 73
39 | B3 | 100

Each binder was assayed against T1, recombinant purified FRα (ECL assay …) (assay: ECL sandwich, FRα calibrator; capture 2F11.F8; binder = detection Ab).

Row | Binder | Specific signal at 500 pg/mL
40 | B1 | 67
41 | B2 | 62
42 | B3 | 123

What follows are binders tested against T1, recombinant purified FRα (ECL assay …) (assay: ECL sandwich on FRα, signal to background; capture 19D2.G9; binder = detection Ab).

Row | Binder | Average of S/B
43 | B1 | 1
44 | B2 | 1
45 | B3 | 1

What follows are binders tested against T1, recombinant purified FRα (ECL assay …) (assay: ECL sandwich, FRα calibrator; capture 1A8.G11.E7; binder = detection Ab).

Row | Binder | Specific signal at 500 pg/mL
46 | B1 | 54
47 | B2 | 57
48 | B3 | 66

These binders were tested against T1, recombinant purified FRα (ECL assay …) (assay: ECL sandwich, FRα calibrator; capture 1C6.E12.G8; binder = detection Ab).

Row | Binder | Specific signal at 500 pg/mL
49 | B1 | 86
50 | B2 | 74
51 | B3 | 58

These binders were tested against T1, recombinant purified FRα (ECL assay …) (assay: ECL sandwich on FRα, signal to background; capture 2F11.F8; binder = detection Ab).

Row | Binder | Average of S/B
52 | B1 | 1
53 | B2 | 1
54 | B3 | 1

The binders below were run against T1, recombinant purified FRα (ECL assay …) (assay: ECL sandwich, FRα calibrator; capture 28H12.G9; binder = detection Ab).

Row | Binder | Specific signal at 500 pg/mL
55 | B1 | 92
56 | B2 | 78
57 | B3 | 68

Each binder was assayed against T1, recombinant purified FRα (ECL assay …) (assay: ECL sandwich, FRα calibrator; capture 19D2.G9; binder = detection Ab).

Row | Binder | Specific signal at 500 pg/mL
58 | B1 | 80
59 | B2 | 67
60 | B3 | 77

The binders below were run against T1, recombinant purified FRα (ECL assay …) (assay: ECL sandwich, FRα calibrator; capture 30G6.G6.G4.E9; binder = detection Ab).

Row | Binder | Specific signal at 500 pg/mL
61 | B1 | 10900
62 | B2 | 7910
63 | B3 | 5290

These binders were tested against T1, recombinant purified FRα (ECL assay …) (assay: ECL sandwich on FRα, signal to background; capture 24H8.D3; binder = detection Ab).

Row | Binder | Average of S/B
64 | B1 | 1
65 | B2 | 1
66 | B3 | 1

Each binder was assayed against T1, recombinant purified FRα (ECL assay …) (assay: ECL sandwich, FRα calibrator; capture 24H8.D3; binder = detection Ab).

Row | Binder | Specific signal at 500 pg/mL
67 | B1 | 74
68 | B2 | 79
69 | B3 | 71

Each binder was assayed against T1, recombinant purified FRα (ECL assay …) (assay: ECL sandwich, FRα calibrator; capture 1D2.G8.G10; binder = detection Ab).

Row | Binder | Specific signal at 500 pg/mL
70 | B1 | 53
71 | B2 | 87
72 | B3 | 57

Each binder was assayed against T1, recombinant purified FRα (ECL assay …) (assay: ECL sandwich on FRα, signal to background; capture 28H12.G9; binder = detection Ab).

Row | Binder | Average of S/B
73 | B1 | 1
74 | B2 | 1
75 | B3 | 1

Each binder was assayed against T1, recombinant purified FRα (ECL assay …) (assay: ECL sandwich on FRα, signal to background; capture 1A8.G11.E7; binder = detection Ab).

Row | Binder | Average of S/B
76 | B1 | 1
77 | B2 | 1
78 | B3 | 1

Each binder was assayed against T3, human folate receptor gamma (FRγ), recombinant, C-terminal 6xHis (human, UniProt P41439 23-245, limits assumed) (assay: direct ELISA, plates coated with 1 µg/mL FR isoform, dilution series of culture supernatant).
T3 construct: Transiently expressed in 293F cells and purified; coated on ELISA plates
T3 sequence (P41439 other isoform, or with tags, fused parts or gaps limits assumed): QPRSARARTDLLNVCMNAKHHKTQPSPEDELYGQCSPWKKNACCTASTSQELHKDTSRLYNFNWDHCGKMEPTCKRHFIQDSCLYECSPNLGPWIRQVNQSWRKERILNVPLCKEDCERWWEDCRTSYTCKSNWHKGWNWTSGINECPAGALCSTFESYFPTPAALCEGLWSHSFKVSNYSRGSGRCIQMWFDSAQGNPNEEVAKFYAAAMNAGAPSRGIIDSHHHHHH

Row | Binder | binding result
79 | B1 | no binding
80 | B2 | no binding
81 | B3 | no binding

What follows are binders tested against T4, human folate receptor beta (FRβ), recombinant, C-terminal 6xHis (human, UniProt P14207 17-230, limits assumed) in the same assay as above.
T4 construct: Transiently expressed in 293F cells and purified; coated on ELISA plates
T4 sequence (P14207 other isoform, or with tags, fused parts or gaps limits assumed): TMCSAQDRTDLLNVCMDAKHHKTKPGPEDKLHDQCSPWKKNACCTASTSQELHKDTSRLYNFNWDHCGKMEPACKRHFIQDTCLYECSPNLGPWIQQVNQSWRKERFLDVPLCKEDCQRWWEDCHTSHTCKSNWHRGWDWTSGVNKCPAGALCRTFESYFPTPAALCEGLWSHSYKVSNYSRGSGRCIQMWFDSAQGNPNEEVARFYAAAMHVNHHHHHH

Row | Binder | binding result
82 | B1 | no binding
83 | B2 | no binding
84 | B3 | no binding

Each binder was assayed against T1, recombinant purified FRα (ECL assay …) (assay: ECL sandwich on FRα, signal to background; capture 19D4.B7; binder = detection Ab).

Row | Binder | Average of S/B
85 | B1 | 449
86 | B2 | 218
87 | B3 | 253

From patent US20180148504A1 (EISAI R AND D MANAGEMENT, published 2018)
